# Patent US20140093973A1 (BOARD OF REGENTS OF THE UNIVERSITY OF OKLAHOMA, published 2014)
# Read-outs that look alike come from different tables or passages of the source. Ends that are not written are not given here.
# Assays:
# [1] = target: T1, soluble HLA-A*6901 (sHLA-A*6901) (human); assay: FP screen
# T1 construct: Recombinant soluble class I with endogenous peptides, made as m1
# [2] = target: T2, soluble HLA-B*1512 (human); assay: FP screen
# T2 construct: Member of the panel of 53 single-specificity sHLA
# [3] = target: T3, soluble HLA-A*3002 (human); assay: FP screen
# T3 construct: Member of the panel of 53 single-specificity sHLA
# [4] = target: T4, soluble HLA-A*2601 (human); assay: FP screen
# T4 construct: Member of the panel of 53 single-specificity sHLA
# [5] = target: T5, soluble HLA-A*4301 (sHLA-A*4301) (human); assay: FP screen
# T5 construct: Recombinant soluble class I with endogenous peptides, made as m1
# [6] = target: T6, soluble HLA-A*1102 (sHLA-A*1102) (human, UniProt P04439 25-308; P61769 21-119); assay: FP screen
# T6 construct: Recombinant soluble class I with endogenous peptides, made as m1
# [7] = target: T7, soluble HLA-A*0101 (human); assay: FP screen
# T7 construct: Member of the panel of 53 single-specificity sHLA
# [8] = target: T8, soluble HLA-A*3601 (human); assay: FP screen
# T8 construct: Member of the panel of 53 single-specificity sHLA
# [9] = target: T9, soluble HLA-A*3402 (human); assay: FP screen
# T9 construct: Member of the panel of 53 single-specificity sHLA
# [10] = target: T10, soluble HLA-B*4002 (human); assay: FP screen
# T10 construct: Member of the panel of 53 single-specificity sHLA
# [11] = target: T11, soluble HLA-B*4402 (human); assay: FP screen
# T11 construct: Member of the panel of 53 single-specificity sHLA
# [12] = target: T12, soluble HLA-B*2705 (sHLA-B*2705) (human); assay: FP screen
# T12 construct: Recombinant soluble class I with endogenous peptides, made as m1; negative control
# [13] = target: T13, soluble HLA-B*4001 (human); assay: FP screen
# T13 construct: Member of the panel of 53 single-specificity sHLA
# [14] = target: T14, soluble HLA-A*6801 (sHLA-A*6801) (human); assay: FP screen
# T14 construct: Recombinant soluble class I with endogenous peptides, made as m1
# [15] = target: soluble HLA-A*0201 (sHLA-A*0201) (human); assay: FP screen
# [16] = target: T15, soluble HLA-B*1302 (human); assay: FP screen
# T15 construct: Member of the panel of 53 single-specificity sHLA
# [17] = target: T16, soluble HLA-A*0301 (human); assay: FP screen
# T16 construct: Member of the panel of 53 single-specificity sHLA
# [18] = target: T17, soluble HLA-B*1801 (human); assay: FP screen
# T17 construct: Member of the panel of 53 single-specificity sHLA
# [19] = target: T18, soluble HLA-A*2301 (human); assay: FP screen of 53 sHLA with FITC-peptide
# T18 construct: Member of the panel of 53 single-specificity sHLA
# [20] = target: T19, soluble HLA-A*2902 (human); assay: FP screen of 53 sHLA with FITC-peptide
# T19 construct: Member of the panel of 53 single-specificity sHLA
# [21] = target: T20, soluble HLA-B*1501 (human); assay: FP screen of 53 sHLA with FITC-peptide
# T20 construct: Member of the panel of 53 single-specificity sHLA
# [22] = target: T21, soluble HLA-A*6601 (human); assay: FP screen of 53 sHLA with FITC-peptide
# T21 construct: Member of the panel of 53 single-specificity sHLA
# [23] = target: T22, soluble HLA-A*2402 (human); assay: FP screen of 53 sHLA with FITC-peptide
# T22 construct: Member of the panel of 53 single-specificity sHLA
# [24] = target: T23, soluble HLA-B*4501 (human); assay: FP screen of 53 sHLA with FITC-peptide
# T23 construct: Member of the panel of 53 single-specificity sHLA
# [25] = target: T13, soluble HLA-B*4001; assay: FP screen of 53 sHLA
# [26] = target: T1, soluble HLA-A*6901 (sHLA-A*6901); assay: FP screen; remark: listed apart in the source
# [27] = target: T2, soluble HLA-B*1512; assay: FP screen; remark: listed apart in the source
# [28] = target: T3, soluble HLA-A*3002; assay: FP screen; remark: listed apart in the source
# [29] = target: T4, soluble HLA-A*2601; assay: FP screen; remark: listed apart in the source
# [30] = target: T5, soluble HLA-A*4301 (sHLA-A*4301); assay: FP screen; remark: listed apart in the source
# [31] = target: T6, soluble HLA-A*1102 (sHLA-A*1102); assay: FP screen; remark: listed apart in the source
# [32] = target: T18, soluble HLA-A*2301; assay: FP screen
# [33] = target: T19, soluble HLA-A*2902; assay: FP screen
# [34] = target: T8, soluble HLA-A*3601; assay: FP screen; remark: listed apart in the source
# [35] = target: T9, soluble HLA-A*3402; assay: FP screen; remark: listed apart in the source
# [36] = target: T11, soluble HLA-B*4402; assay: FP screen; remark: listed apart in the source
# [37] = target: T21, soluble HLA-A*6601; assay: FP screen
# [38] = target: T12, soluble HLA-B*2705 (sHLA-B*2705); assay: FP screen; remark: listed apart in the source
# [39] = target: T14, soluble HLA-A*6801 (sHLA-A*6801); assay: FP screen; remark: listed apart in the source
# [40] = target: soluble HLA-A*0201 (sHLA-A*0201) (human); assay: FP screen; remark: listed apart in the source
# [41] = target: T15, soluble HLA-B*1302; assay: FP screen; remark: listed apart in the source
# [42] = target: T16, soluble HLA-A*0301; assay: FP screen; remark: listed apart in the source
# [43] = target: T22, soluble HLA-A*2402; assay: FP screen
# [44] = target: T23, soluble HLA-B*4501; assay: FP screen
# [45] = target: T20, soluble HLA-B*1501; assay: FP screen of 53 sHLA with FITC-peptide; remark: listed apart in the source
# [46] = target: T17, soluble HLA-B*1801; assay: FP screen of 53 sHLA with FITC-peptide
# [47] = target: T11, soluble HLA-B*4402; assay: FP screen of 53 sHLA
# [48] = target: T10, soluble HLA-B*4002; assay: FP screen of 53 sHLA with FITC-peptide
# [49] = target: T13, soluble HLA-B*4001; assay: FP screen of 53 sHLA with FITC-peptide
binder,measurement,setting,value
"QYSWFKNGTF (not fully specified; also: FITC-labeled, position not given here) [QYSWFKNGTF, FITC-labeled A24-like peptide]",binding result,[1],no binding (tested: 100 ug/ml sHLA)
same,binding result,[2],no binding (tested: 100 ug/ml sHLA)
same,binding result,[3],no binding (tested: 100 ug/ml sHLA)
same,binding result,[4],no binding (tested: 100 ug/ml sHLA)
same,binding result,[5],no binding (tested: 100 ug/ml sHLA)
same,binding result,[6],no binding (tested: 100 ug/ml sHLA)
same,binding result,[7],no binding (tested: 100 ug/ml sHLA)
same,binding result,[8],no binding (tested: 100 ug/ml sHLA)
same,binding result,[9],no binding (tested: 100 ug/ml sHLA)
same,binding result,[10],no binding (tested: 100 ug/ml sHLA)
same,binding result,[11],no binding (tested: 100 ug/ml sHLA)
same,binding result,[12],no binding (tested: 100 ug/ml sHLA)
same,binding result,[13],no binding (tested: 100 ug/ml sHLA)
same,binding result,[14],no binding (tested: 100 ug/ml sHLA)
same,binding result,[15],no binding (tested: 100 ug/ml sHLA)
same,binding result,[16],no binding (tested: 100 ug/ml sHLA)
same,binding result,[17],no binding (tested: 100 ug/ml sHLA)
same,binding result,[18],no binding (tested: 100 ug/ml sHLA)
same,binding result,[19],binds
same,binding result,[20],binds
same,binding result,[21],binds
same,binding result,[22],binds
same,binding result,[23],binds
same,binding result,[24],binds
"EEKLIVKQY (also: FITC-labeled, position not given here) [EEKLIVKQY, FITC-labeled B44-like peptide]",binding result,[25],binds
same,binding result,[26],no binding (tested: 100 ug/ml sHLA)
same,binding result,[27],no binding (tested: 100 ug/ml sHLA)
same,binding result,[28],no binding (tested: 100 ug/ml sHLA)
same,binding result,[29],no binding (tested: 100 ug/ml sHLA)
same,binding result,[30],no binding (tested: 100 ug/ml sHLA)
same,binding result,[31],no binding (tested: 100 ug/ml sHLA)
same,binding result,[32],no binding (tested: 100 ug/ml sHLA)
same,binding result,[33],no binding (tested: 100 ug/ml sHLA)
same,binding result,[34],no binding (tested: 100 ug/ml sHLA)
same,binding result,[35],no binding (tested: 100 ug/ml sHLA)
same,binding result,[36],no binding (tested: 100 ug/ml sHLA)
same,binding result,[37],no binding (tested: 100 ug/ml sHLA)
same,binding result,[38],no binding (tested: 100 ug/ml sHLA)
same,binding result,[39],no binding (tested: 100 ug/ml sHLA)
same,binding result,[40],no binding (tested: 100 ug/ml sHLA)
same,binding result,[41],no binding (tested: 100 ug/ml sHLA)
same,binding result,[42],no binding (tested: 100 ug/ml sHLA)
same,binding result,[43],no binding (tested: 100 ug/ml sHLA)
same,binding result,[44],no binding (tested: 100 ug/ml sHLA)
same,binding result,[45],binds
same,binding result,[46],binds
"AELLAAKF (also: FITC-labeled, position not given here) [AELLAAKF, FITC-labeled B44-like peptide]",binding result,[47],"no binding (tested: 2 nM peptide, 100 ug/ml activated sHLA)"
same,binding result,[48],binds
same,binding result,[49],binds
same,binding result,[46],binds
